Values of other authors as cited in EP0314042A2, “Novel copolymers and superoxide dismutase modified with said copolymers” (KURARAY CO., LTD., priority 1987, dated 1989).

Experiments:
[1] = as compared with SOD; cited from earlier work
[2] = result in words, relative to SOD; cited from earlier work

Substance | enzymatic activity of SOD [1] | plasma half-life [2]
Ficoll-modified SOD: SOD converted to a giant molecule through modification with Ficoll | markedly decreased | –
polyethylene glycol-modified-SOD: SOD converted to a giant molecule through modification with polyethylene glycol | markedly decreased | –
inulin-modified SOD: SOD modified with inulin (Japanese Kokai Tokkyo Koho No. 58-32826) | reduced | much prolonged
